From article PMC2954335

Target: ecCTLA-4 (Escherichia coli-expressed monomeric form of CTLA-4, extracellular region vl-Ig 1-124, cysteine 122 mutated to serine) (UniProt P16410)
Assay: SEC; monomeric ecCTLA-4 concentrated to 10 mg/ml, incubated 24 h at room temperature, then analytical size-exclusion chromatography with calibration curve; monomer to strand-swapped dimer and larger species

- stoichiometry N: > 2
Substance: ecCTLA-4 (Escherichia coli-expressed monomeric form of CTLA-4, extracellular region vl-Ig 1-124, cysteine 122 mutated to serine) (from UniProt P16410 36-159) (domain or fragment)
